# Laboratory results published in article PMC6260146.
# Target: CR3 (CD11b/CD18) on peripheral blood monocytes (human (endogenous in peripheral blood monocytes)) (UniProt P11215)
# Assay: flow cytometry on cells; peripheral blood monocytes preincubated with unlabelled FH5-7 (14 μg/ml, 15 min on ice by the methods; 12 μg/ml, 30 min by the legend) or PBS, then a panel of FITC-, PE- or APC-labeled receptor specific antibodies, 45 min at 4°C; read-out: mean fluorescence of FH5-7 treated cells divided by PBS treated cells
substance,measurement,value
recombinant fragment FH5-7 of Factor H (domain or fragment),anti-CD11b antibody binding in the presence of FH5-7 relative to without FH5-7 (1.0) (ratio of mean fluorescence),< 0.8
